Kd data for one sequence are collected here from paper PMC10783497.

“And” between values parts separate entries of the source, which are not always exact repeats. Equal values may be shown once.

The target in this data set is streptavidin (on Sera-Mag magnetic microparticles) (UniProt P22629). Nature of the data set: magnetic bead pull-down, FAM fluorescence of eluted aptamer. The following applies: 1X PBS, or 2 M NaCl, or 2 M CDHP with 1X PBS; 90 min at room temperature; elution in 250 mM NaCl, 500 mM Tris-HCl pH 8.5.
streptavidin (on Sera-Mag magnetic microparticles), sequence (P22629 25-183): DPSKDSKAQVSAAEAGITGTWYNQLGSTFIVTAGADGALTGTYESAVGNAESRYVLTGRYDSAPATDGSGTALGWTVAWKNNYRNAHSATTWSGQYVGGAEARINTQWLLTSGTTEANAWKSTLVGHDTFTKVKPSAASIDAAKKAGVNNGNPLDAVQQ

Regarding “ATTGACCGCTGTGTGACGCAACACTCAAT [St-21-1 aptamer]”, the dissociation constant Kd (commonly a measure of binding affinity in units of concentration) is 94.5 nM and 75.4 nM and 70 nM.
